Data taken from patent US12702694B2, “Methods for identification, assessment, prevention, and treatment of metabolic disorders using SLIT2” (Dana-Farber Cancer Institute, Inc., priority 2015, dated 2026).

Assays:
Type in all cases: in vivo, Mus musculus
[1] = test system: high fat diet-fed mice; assay: Whole body energy expenditure (CLAMS) and tissue weights
Method: (§1) Glucose tolerance tests were performed on mice 7 days post-injection with adenovirus. […] Animals were fasted overnight and then received intraperitoneal glucose at […]. Energy expenditure was analyzed using a Comprehensive Lab Animal Monitoring System (Columbus Instruments). Cold exposure and thermoneutrality experiments were performed in Balb/c mice at 4° C. or 30° C., respectively. Total levels of cholesterol, free fatty acids, triglycerides and insulin were measured at the Core Facility at Joslin Diabetes Center.

[2] = test system: lean mice; assay: Tissue gene expression after intravenous delivery of adenovirus to lean mice
Method: (§2) All animal experiments were approved by the Institutional Animal Care and Use Committee of the Beth Israel Deaconess Medical Center. Mice (Mus musculus) were obtained from Jackson Laboratories, maintained in 12 hour light-lark cycles (6 a.m.-6 p.m.) at 22° C., and fed a standard irradiated rodent chow diet or a high-fat diet (60% fat) for 12-20 weeks. AAV-8 viruses (Penn Vector Core) and adenoviruses (Vector Biolabs or constructed in-house) were injected at a titer of 10^11 or 10^10 per mouse, respectively. All experiments were done with male mice. The aP2-PRDM16 transgenic mice have been previously described in Seale et al. (2011) J. Clin. Invest. 121:96-105. PRDM16-floxed mice were crossed with adiponectin-Cre and were maintained on a pure C57BL/6 background (Cohen et al. (2014) Cell 156:304-316). The Slit2-floxed mice have been described previously in Rama et al. (2015) Nat. Med. 21:483-491. Lean C57BL/6 mice were obtained from Jackson Laboratories and were […].
(§3) RNA was extracted from cultured cells or frozen tissue samples using TRIzol®, purified with QIAGEN RNeasy® minicolumns. Normalized RNA was reversed transcribed using a high-capacity cDNA reverse transcription lot (Applied Biosystems) and cDNA was analyzed by qRT-CPR. Relative mRNA levels were calculated using the comparative CT method and normalized to cyclophilin […]. All primers used are listed with their sequences in Table 3 as follows: […]
Slit2 full-length (untagged and Myc-DDK tagged) expression plasmids and corresponding LacZ control plasmids in adenovirus was purchased from Vector Biolabs. To construct the Slit2-N and Slit2-C ENTR clones, PCR primers were designed to amplify the signal peptide, N-terminal, and C-terminal Slit2 from mouse cDNA (OriGene MR227608). To construct the Slit2-N and Slit2-C ENTR clone, the Slit2N gene was amplified from mouse Slit2 cDNA to create PCR fragments corresponding to Slit2-signal peptide and Slit2-N that were ligated into the pENTR1a dual selection vector. The Slit2-C PCR fragment was sub-cloned into the pENTR1a vector containing the signal peptide. The Slit2-N and Slit2-C expression clones in which the fragments are fused to a C-terminal V5 tag were generated by performing the LR reaction between pENTR/D-TOPO-Slit2N or pENTR/D-TOPO-Slit2-C and pAD/CMV/V5-DEST (Life Technologies). The expression construct was cut with Pac and transfected into HEK-293A cells to produce crude adenoviral stock. Amplified virus was purified and concentrated using the Vivapure® adenopack 100 (Sartorius Stedim Biotech) and buffer exchanged to 10 mM Tris-Cl at pH 8.0, 2 mM MgCl2, 4% w/v sucrose. Adenovirus titer was calculated using an Adeno-X™ Rapid Titer kit (Clontech). For primary adipocytes a concentration of 10^8 pfu/well was used and 10^10 pfu/mouse were used for in vivo experiments. Expression levels of Slit2-N and Slit2-C were confirmed after 48 hours post infection by Western blot analysis using a V5 antibody (Life Technologies). Expression of Slit2-N and Slit2-C was performed by amplification from mouse Slit2 cDNA and ligated into the pENTR dual selection vector with a signal peptide sequence.

[3] = test system: diet-induced obese (DIO) mice; assay: Adipose gene and UCP1 protein expression after adenovirus injection in diet-induced obese (DIO) mice
Method: as §2, §3
For Western blotting, homogenized tissues, whole cell lysates, or concentrated serum free conditioned medium were lysed in RIPA buffer containing protease inhibitor cocktail (Thermo Scientific) and phosphatase inhibitor cocktail (Thermo Scientific), separated by SDS-PAGE and transferred to Immobilon-P® membranes (Millipore). For Western blotting of plasma samples, 1 μl of plasma was prepared containing 2× sample buffer (Invitrogen) with reducing agent, boiled and analyzed using Western blot against V5, FLAG, or the indicated antibody. V5-antibody was from Life Technologies and anti-Flag M2-HRP (A8592) from Sigma Aldrich. Anti-Slit2 antibody used was from Abcam (Abcam ab134166). Phospho-PKA Substrate, phospho-PKC Substrate, phospho-ERK1/2, total ERK, phospho-AKT, total AKT, phospho-AMPK, total AMPK, phospho-ATGL, ATGL, phospho-EGFR and EGFR were from Cell Signaling. Protein array was from R&D Systems (Proteome Profiler Mouse Phospho-RTK Array Kit, ARY014). Silverstain (SilverQuest™ Silver Staining Kit, LC6070) was purchased from Thermo Fisher.

[4] = test system: inguinal white fat tissue and brown fat tissue; assay: Tissue respiration (Clark electrode) of minced adipose tissue; conditions: day 7 after adenovirus injection
Method: Tissue respiration was performed using a Clark electrode (Stathkelvin Instruments). Freshly isolated tissues were dissected from mice treated with LacZ or Slit2-C adenovirus for 7 days. Equally sized pieces of tissue were minced and placed in respiration buffer containing PBS supplemented with 2% (w/v) bovine serum albumin, 1% (w/v) glucose, and 1 mM Na pyruvate. Oxygen (O2) consumption was normalized to tissue weight. Cellular oxygen consumption rates were determined using an XF24 Extracellular Flux Analyzer (Seahorse Biosciences). Primary brown fat adipocytes were seeded at 15,000 cells/well, differentiation was induced the following day as previously described, and the cells were analyzed on day 5. On the day of analysis, the cells were washed once with Seahorse respiration buffer (8.3 g/l DMEM, 1.8 g/l NaCl, 1 mM pyruvate, 20 mM glucose, pen/strep), placed in 0.5 ml Seahorse respiration buffer, and incubated in a C02-free incubator for 1 hr. Port injection solutions were prepared as follows: oligomycin (1 μM final concentration), norepinephrine (1 μM final concentration), FCCP (0.2 μM final concentration), and rotenone (3 μM final concentration). Each cycle consisted of the following: mix 4 min, wait 0 min, and measure 2 min. Data are presented as S.E.M.

[5] = Plasma cholesterol, triglycerides and insulin; conditions: 7 days post-injection
Method: as §1

[6] = i.v. Slit2 adenovirus vs LacZ, lean mice, day 7, FIG. 4E
[7] = 16-week high fat diet-fed mice, Slit2-C adenovirus vs LacZ
[8] = lean mice, Slit2-C adenovirus, FIG. 6D

B1: Slit2: Slit family secreted extracellular matrix protein, full length ~180 kDa; used as commercial recombinant protein or adenovirally expressed (protein)
chain: QACPAQCSCSGSTVDCHGLALRSVPRNIPRNTERLDLNGNNITRITKIDFAGLRHLRVLQLMENRISTIERGAFQDLKELERLRLNRNNLQLFPELLFLGTAKLYRLDLSENQIQAIPRKAFRGAVDIKNLQLDYNQISCIEDGAFRALRDLEVLTLNNNNITRLSVASFNHMPKLRTFRLHSNNLYCDCHLAWLSDWLRQRPRVGLYTQCMGPSHLRGHNVAEVQKREFVCSGHQSFMAPSCSVLHCPAACTCSNNIVDCRGKGLTEIPTNLPETITEIRLEQNSIRVIPPGAFSPYKKLRRLDLSNNQISELAPDAFQGLRSLNSLVLYGNKITELPKSLFEGLFSLQLLLLNANKINCLRVDAFQDLHNLNLLSLYDNKLQTVAKGTFSALRAIQTMHLAQNPFICDCHLKWLADYLHTNPIETSGARCTSPRRLANKRIGQIKSKKFRCSGTEDYRSKLSGDCFADLACPEKCRCEGTTVDCSNQRLNKIPDHIPQYTAELRLNNNEFTVLEATGIFKKLPQLRKINFSNNKITDIEEGAFEGASGVNEILLTSNRLENVQHKMFKGLESLKTLMLRSNRISCVGNDSFIGLGSVRLLSLYDNQITTVAPGAFDSLHSLSTLNLLANPFNCNCHLAWLGEWLRRKRIVTGNPRCQKPYFLKEIPIQDVAIQDFTCDDGNDDNSCSPLSRCPSECTCLDTVVRCSNKGLKVLPKGIPKDVTELYLDGNQFTLVPKELSNYKHLTLIDLSNNRISTLSNQSFSNMTQLLTLILSYNRLRCIPPRTFDGLKSLRLLSLHGNDISVVPEGAFNDLSALSHLAIGANPLYCDCNMQWLSDWVKSEYKEPGIARCAGPGEMADKLLLTTPSKKFTCQGPVDITIQAKCNPCLSNPCKNDGTCNNDPVDFYRCTCPYGFKGQDCDVPIHACISNPCKHGGTCHLKEGENAGFWCTCADGFEGENCEVNIDDCEDNDCENNSTCVDGINNYTCLCPPEYTGELCEEKLDFCAQDLNPCQHDSKCILTPKGFKCDCTPGYIGEHCDIDFDDCQDNKCKNGAHCTDAVNGYTCVCPEGYSGLFCEFSPPMVLPRTSPCDNFDCQNGAQCIIRINEPICQCLPGYLGEKCEKLVSVNFVNKESYLQIPSAKVRPQTNITLQIATDEDSGILLYKGDKDHIAVELYRGRVRASYDTGSHPASAIYSVETINDGNFHIVELLTLDSSLSLSVDGGSPKVITNLSKQSTLNFDSPLYVGGMPGKNNVASLRQAPGQNGTSFHGCIRNLYINSELQDFRKMPMQTGILPGCEPCHKKVCAHGMCQPSSQSGFTCECEEGWMGPLCDQRTNDPCLGNKCVHGTCLPINAFSYSCKCLEGHGGVLCDEEEDLFNPCQMIKCKHGKCRLSGVGQPYCECNSGFTGDSCDREISCRGERIRDYYQKQQGYAACQTTKKVSRLECRGGCAGGQCCGPLRSKRRKYSFECTDGSSFVDEVEKVVKCGCARCAS
[1]; full-length Slit2 adenovirus, FIGS. 9A-9E
  energy expenditure, compared with Slit2-C experiments: comparable results
[2]; 7 days postinjection, FIGS. 12D-12F
  vascular and neuronal markers in fat or skeletal muscle: did not change
[2]; i.v. Slit2 adenovirus
  induction of PRDM16 in brown fat: greater than 2 fold
  other thermogenic genes or UCP1 protein in brown fat: without any changes
[2]; i.v. Slit2 adenovirus vs LacZ, day 7, FIG. 3F
  induction of Ucp1 and Elovl3 in inguinal adipose tissue: 2 fold
[2]; [6]
  induction of Prdm16 in iWAT: 1.5 fold
  induction of Ucp1 in iWAT: 2.5 fold
[2]; i.v. Slit2 adenovirus, FIG. 4A
  lipolysis or lipogenesis gene expression in the liver: No changes
[2]; i.v. Slit2 adenovirus, FIG. 4B
  skeletal muscle gene expression of Glut1, Glut4 and Tnfa: no gene expression changes
[2]; iWAT, i.v. Slit2 adenovirus, FIG. 4E
  white fat selective genes, including Leptin and Resistin: strongly suppressed

B2: Slit2-C: ~50 kDa C-terminal cleavage fragment of Slit2 beginning at TSP (SEQ ID NO: 22); adenovirally expressed or purified FLAG-tagged protein (protein, listed as Homo sapiens)
chain: TSPCDNFDCQNGAQCIIRINEPICQCLPGYLGEKCEKLVSVNFVNKESYLQIPSAKVRPQTNITLQIATDEDSGILLYKGDKDHIAVELYRGRVRASYDTGSHPASAIYSVETINDGNFHIVELLTLDSSLSLSVDGGSPKVITNLSKQSTLNFDSPLYVGGMPGKNNVASLRQAPGQNGTSFHGCIRNLYINSELQDFRKMPMQTGILPGCEPCHKKVCAHGMCQPSSQSGFTCECEEGWMGPLCDQRTNDPCLGNKCVHGTCLPINAFSYSCKCLEGHGGVLCDEEEDLFNPCQMIKCKHGKCRLSGVGQPYCECNSGFTGDSCDREISCRGERIRDYYQKQQGYAACQTTKKVSRLECRGGCAGGQCCGPLRSKRRKYSFECTDGSSFVDEVEKVVKCGCARCAS
modifications: FLAG tag
notes: adenovirally expressed or purified FLAG-tagged protein
[1]; [7]
  body weight: no observable difference
  food intake: no observable difference
  locomotor activity: no observable difference
  respiratory exchange ratio (RER): no observable difference
[1]; 16-week high fat diet-fed mice, Slit2-C adenovirus vs LacZ, normalized to total body weight
  whole-body oxygen consumption: induced
[1]; day 7 post-injection, FIGS. 8F, 8I
  mass of the brown and inguinal depots: reduction
[3]; 16-week DIO mice, 7 days post-injection, FIGS. 7A-7B
  Fas in inguinal and brown fat: reduction
[3]; 16-week DIO mice, FIGS. 7A-7B
  Hsl and Atgl expression: unchanged
[3]; FIG. 7C
  Resistin in brown fat: unchanged
  brown fat levels of Leptin: marked reduction
[3]; Western blot quantification relative tubulin, DIO mice 7 days post-injection, FIG. 7D
  induction of Ucp1 protein expression in BAT: 1.3 fold
[2]; lean mice injected with Slit2-C adenovirus, FIG. 6C
  induction of Ucp1 mRNA in iWAT: 3 fold
[2]; [8]
  expression of mitochondrial genes (Atp5b, Uqcrb, Atp6vOa2, Atp9b, Cox5a) in BAT: upregulation
  transcriptional regulators Prdm16, Nrf1, and Erra in classical brown fat: significant changes
[4]; did not reach significance
  O2 consumption of inguinal tissue: elevated
[4]; reached significance
  O2 consumption of BAT: elevated
[5]; FIG. 9G
  total plasma cholesterol: not affected
[5]; FIG. 9H
  plasma triglycerides: not affected
[5]; FIG. 9I
  non-fasting insulin levels: not affected
